Source: patent US20040081647A1 (published 2004)

Target: T1, human TNFα fusion protein with an N-terminal S-Tag (human, UniProt P01375 77-233)
T1 construct: Constructed, expressed and purified by the applicants; also called S-TNF; not shown: 15 amino acid S-Tag peptide (Novagen)
Experiment: indirect ELISA: sp55 from conditioned media captured on Ni-NTA wells, S-TNF at 1 µg/mL, S-protein-HRP, absorbance at 370 nm

T1 sequence (P01375 77-233): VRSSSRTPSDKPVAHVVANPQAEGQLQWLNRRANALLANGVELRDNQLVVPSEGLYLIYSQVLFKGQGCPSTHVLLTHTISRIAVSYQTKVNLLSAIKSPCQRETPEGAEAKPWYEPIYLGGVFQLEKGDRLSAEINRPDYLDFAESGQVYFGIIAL

B1: sp55 address domain (human TNFR-1 ecto-domain residues 30-211) with C-terminal myc and His6 tags (receptor)
chain: DAAQPARRAVRSLVPHLGDREKRDSVCPQGKYIHPQNNSICCTKCHKGTYLYNDCPGPGQDTDCRECESGSFTASENHLRHCLSCSKCRKEMGQVEISSCTVDRDTVCGCRKNQYRHYWSENLFQCFNCSLCLNGTVHLSCQEKQNTVCTCHAGFFLRENECVSCSNCKKSLECTKLCLPQIENVKGTEDSGTTRGGPEQKLISEEDLNSAVDHHHHHH
notes: also called p55FL-myc-his; p55FL
- fold elevation of S-TNF binding over non-specific binding in control samples: 3 fold
